B1: CSpoIISA (His6 tag-free cytosolic domain of SpoIISA) (domain or fragment)
chain: FIFLSAYVKKLAGSELETDTREILEENNEMLHMYLNRLKTYQYLLKNEPIHVYYGSIDAYAEGIDKLLKTYADKMNLTASLCHYSTQADKDRLTEHMDDPADVQTRLDRKDVYYDQYGKVVLIPFTIETQNYVIKLTSDSIVTEFDYLLFTSLTSIYDLVLPIEEEGEG
B2: cytoplasmic fragment of SpoIISA (CSpoIISA) as found in the crystal of the CSpoIISA·SpoIISB complex (domain or fragment)
chain: GSELETDTREILEENNEMLHMYLNRLKTYQYLLKNEPIHVYYGSIDAYAEGIDKLLKTYADKMNLTASLCHYSTQADKDRLTEHMDDPADVQTRLDRKDVYYDQYGKVVLIPFTIETQNYVIKLTSDSIVTEFDYLLFTSLTSIYDLVLPIEEEGEG
modifications: selenomethionine-substituted

Experiments:
[1] = biological target: the molecule itself; assay: SEC
[2] = biological target: the molecule itself; assay: crystal structure

Protein	stoichiometry N [1]	stoichiometry N [2]
B1	2	
B2		2

— article PMC3057836 (The Journal of Biological Chemistry, 2010)
